Legend:
alpha-thrombin [1] = target: T1, alpha-thrombin (Homo sapiens, UniProt P00734;P00734 P00734:328-363,P00734:364-622); test: flow; reporter with DT-beads (FIG. 2 legend cites SEQ 12 but Table 1 gives SEQ 7); 50 mM Tris pH 7.5, 100 mM NaCl, 2 mM MgCl2, 37 C
alpha-thrombin [2] = target: T1, alpha-thrombin; test: flow; reporter with MC-beads, 30 nM thrombin, 37 C; values in figure only
alpha-thrombin [3] = target: T1, alpha-thrombin; test: detector in two-step sandwich on nylon membrane with immobilized DT-aptamer, room temperature, 100 uM heparin

**Q.** Does TTTTTTGTAGTCACTGGTTGGTGAGGTTGGGTGACTAC (ssDNA) [MC-5'-LNK-F] bind (alpha-thrombin [1])?
**A.** binds

**Q.** Does TTTTTGCTTAGTCCGTGGTAGGGCAGGTTGGGGTGACTAAGC (ssDNA) [DT-5'-LNK-F] bind (alpha-thrombin [2])?
**A.** binds

B1: MC-DIMR-F (ssDNA)
DNA: GTAGTCACTGGTTGGTGAGGTTGGGTGACTACTTTTTTCATCAGTGGGTTGGAGTGGTTGGTCACTGATG
modifications: dimer; second half is the MC sequence in reverse order, structure drawn as image only
**Q.** Does B1 bind (alpha-thrombin [3])?
**A.** binds

Reference: patent US20020037506, “Aptamer based two-site binding assay” (published 2002)
